Changes are numbered by the printed parent chain.
T1: mouse FAP (fibroblast activation protein alpha) overexpressed in B16F10 cells (B16F10-mFAP) (mouse, UniProt P97321 1-761)
T1 construct: whole, on cells; also called mouse FAP-expressing cell line
T1 sequence (looked up): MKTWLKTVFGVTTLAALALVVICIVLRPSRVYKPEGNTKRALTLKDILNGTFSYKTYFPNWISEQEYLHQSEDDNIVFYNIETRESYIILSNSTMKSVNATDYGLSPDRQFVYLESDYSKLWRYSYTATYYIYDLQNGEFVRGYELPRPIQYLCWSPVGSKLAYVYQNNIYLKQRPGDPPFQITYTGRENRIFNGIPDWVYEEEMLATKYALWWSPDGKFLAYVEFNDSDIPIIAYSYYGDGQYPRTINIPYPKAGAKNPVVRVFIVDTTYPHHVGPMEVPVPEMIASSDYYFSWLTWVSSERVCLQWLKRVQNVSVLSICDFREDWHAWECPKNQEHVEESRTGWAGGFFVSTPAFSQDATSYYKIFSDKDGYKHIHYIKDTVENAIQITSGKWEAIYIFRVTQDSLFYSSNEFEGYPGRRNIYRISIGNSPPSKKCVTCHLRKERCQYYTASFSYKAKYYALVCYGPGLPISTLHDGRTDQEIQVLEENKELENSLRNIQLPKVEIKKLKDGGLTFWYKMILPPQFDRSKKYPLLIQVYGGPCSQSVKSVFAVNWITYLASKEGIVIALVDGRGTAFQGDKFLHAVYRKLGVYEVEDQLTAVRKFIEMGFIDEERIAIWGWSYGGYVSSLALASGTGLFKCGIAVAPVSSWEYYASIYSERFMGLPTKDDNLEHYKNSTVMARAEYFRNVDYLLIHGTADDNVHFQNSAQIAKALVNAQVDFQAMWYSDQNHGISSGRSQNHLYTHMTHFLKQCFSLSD

T2: recombinant mouse FAP (mouse, UniProt P97321 26-761)
T2 construct: Soluble analyte in SPR
T2 sequence (looked up): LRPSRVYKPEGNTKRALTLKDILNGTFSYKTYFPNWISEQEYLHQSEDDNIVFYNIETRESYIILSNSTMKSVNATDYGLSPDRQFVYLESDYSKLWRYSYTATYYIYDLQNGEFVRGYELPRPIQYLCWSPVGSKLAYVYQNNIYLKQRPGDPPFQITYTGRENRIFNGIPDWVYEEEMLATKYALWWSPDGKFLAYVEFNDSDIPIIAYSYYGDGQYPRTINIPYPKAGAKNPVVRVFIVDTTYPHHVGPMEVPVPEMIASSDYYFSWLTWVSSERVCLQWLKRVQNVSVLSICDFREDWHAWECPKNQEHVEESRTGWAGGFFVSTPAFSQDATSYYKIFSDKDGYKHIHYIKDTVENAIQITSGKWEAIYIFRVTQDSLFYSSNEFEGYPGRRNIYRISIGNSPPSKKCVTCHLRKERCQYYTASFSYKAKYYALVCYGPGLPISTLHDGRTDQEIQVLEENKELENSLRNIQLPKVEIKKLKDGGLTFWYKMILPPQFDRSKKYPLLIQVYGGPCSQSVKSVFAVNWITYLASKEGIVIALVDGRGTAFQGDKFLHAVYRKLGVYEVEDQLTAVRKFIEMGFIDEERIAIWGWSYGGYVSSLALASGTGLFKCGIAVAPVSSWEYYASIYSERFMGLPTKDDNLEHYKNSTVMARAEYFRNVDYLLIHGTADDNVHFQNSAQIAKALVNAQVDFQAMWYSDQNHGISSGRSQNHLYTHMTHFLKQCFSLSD

B1: T1.02m (anti-mu FAP/mu IL-12 mut1, mu IgG2a DANG) (bispecific antibody)
heavy: QVQLQQSGAELARPGASVNLSCKASGYTFTNNGINWLKQRTGQGLEWIGEIYPRSTNTLYNEKFKGKATLTADRSSNTAYMELRSLTSEDSAVYFCARTLTAPFAFWGQGTLVTVSAAKTTAPSVYPLAPVCGDTTGSSVTLGCLVKGYFPEPVTLTWNSGSLSSGVHTFPAVLQSDLYTLSSSVTVTSSTWPSQSITCNVAHPASSTKVDKKIEPRGPTIKPCPPCKCPAPNLLGGPSVFIFPPKIKDVLMISLSPIVTCVVVAVSEDDPDVQISWFVNNVEVHTAQTQTHREDYGSTLRVVSALPIQHQDWMSGKEFKCKVNNKDLPAPIERTISKPKGSVRAPQVYVLPPPEEEMTKKQVTLWCMVTDFMPEDIYVEWTNNGKTELNYKNTEPVLDSDGSYFMYSKLRVEKKNWVERNSYSCSVVHEGLHNHHTTKSFSRTPGK
light: QIVLTQSPAIMSASPGEKVTMTCSASSGVNFMHWYQQKSGTSPKRWIFDTSKLASGVPARFSGSGSGTSYSLTISSMEAEDAATYYCQQWSFNPPTFGGGTKLEIKRADAAPTVSIFPPSSEQLTSGGASVVCFLNNFYPKDINVKWKIDGSERQNGVLNSWTDQDSKDSTYSMSSTLTLTKDEYERHNSYTCEATHKTSTSPIVKSFNRNEC
chain: MWELEKDVYVVEVDWTPDAPGETVNLTCDTPEEDDITWTSDQRHGVIGSGKTLTITVKEFLDAGQYTCHKGGETLSHSHLLLHKKENGIWSTEILKNFKNKTFLKCEAPNYSGRFTCSWLVQRNMDLKFNIKSSSSSPDSRAVTCGMASLSAEKVTLDQRDYEKYSVSCQEDVTCPTAEETLPIELALEARQQNKYENYSTSFFIRDIIKPDPPKNLQMKPLKNSQVEVSWEYPDSWSTPHSYFSLKFFVRIQRAKEKMAETEEGCNQKGAFLVEKTSTEVQCKGGNVCVQAQDRYYNSSCSKWACVPCRVRSGGGGSGGGGSGGGGSRVIPVSGPARCLSQSRNLLKTTDDMVKTAREKLKHYSCTAEDIDHEDITRDQTSTLKTCLPLELHKNESCLATRETSSTTRGSCLPPQKTSLMMTLCLGSIYEDLKMYQTEFQAINAALQNHNHQQIILDKGMLVAIDELMQSLNHNGETLRQKPPVGEADPYRVKMKLCILLHAFSTRVVTINRVMGYLSSAGGGGSGGGGSEPRGPTIKPCPPCKCPAPNLLGGPSVFIFPPKIKDVLMISLSPIVTCVVVAVSEDDPDVQISWFVNNVEVHTAQTQTHREDYGSTLRVVSALPIQHQDWMSGKEFKCKVNNKDLPAPIERTISKPKGSVRAPQVYVLPPPEEEMTKKQVTLSCAVTDFMPEDIYVEWTNNGKTELNYKNTEPVLDSDGSYFMVSKLRVEKKNWVERNSYSCSVVHEGLHNHHTTKSFSRTPGK
notes: Mouse surrogate, knob-in-hole heterodimer
B2: T1.12m (anti-mu FAP/null, mu IgG2a DANG) (antibody)
heavy: B1 heavy
light: B1 light
chain: EPRGPTIKPCPPCKCPAPNLLGGPSVFIFPPKIKDVLMISLSPIVTCVVVAVSEDDPDVQISWFVNNVEVHTAQTQTHREDYGSTLRVVSALPIQHQDWMSGKEFKCKVNNKDLPAPIERTISKPKGSVRAPQVYVLPPPEEEMTKKQVTLSCAVTDFMPEDIYVEWTNNGKTELNYKNTEPVLDSDGSYFMVSKLRVEKKNWVERNSYSCSVVHEGLHNHHTTKSFSRTPGK
notes: One-armed anti-mouse FAP antibody without IL-12; control
B3: T1.01m (anti-mu FAP/mu IL-12, mu IgG2a DANG) (bispecific antibody)
heavy: B1 heavy
light: B1 light
chain: B1 chain with A255K, A260K
notes: as for B1
B4: T1.03m (anti-mu FAP/mu IL-12 mut2, mu IgG2a DANG) (bispecific antibody)
heavy: B1 heavy
light: B1 light
chain: B1 chain with R254A, K256A
notes: as for B1

How the values were obtained:
[1] = target: T1, mouse FAP (fibroblast activation …); assay: flow cytometry on B16F10-mFAP cells, detection with anti-mouse IgG2a antibody
Method: (§1) Specifically, the cell line was prepared by suspending in a FACS buffer solution at 1×10⁵ cells/100 μl, and treated with 1 μg of each T1.12m, T1.01m, T1.02m and T1.03m. The cells were washed twice with a FACS buffer solution. The cells were stained with an anti-mouse IgG2a antibody (Biolegend). The negative control was stained only with an anti-mouse IgG2a antibody (Biolegend). The expression rate of the stained cells was measured using BD LSR and analyzed using a FlowJo software.

B16F10 = target: T3, B16F10; assay: flow cytometry on parental B16F10 cells, detection with anti-mouse IgG2a antibody
T3 construct: not a protein target; also called parental B16F10 cells, without the transduced mouse FAP gene
Method: as §1

recombinant mouse FAP [2] = target: T2, recombinant mouse FAP; assay: SPR, fusion protein captured by anti-mouse IgG (Fc) on a CM5 chip, mouse FAP as analyte 1.5625-100 nM, 1:1 binding model
[3] = target: T1, mouse FAP (fibroblast activation …); assay: flow cytometry on B16F10-mFAP cells, 1 µg protein per 1x10^5 cells, anti-mouse IgG2a detection
Method: as §1

recombinant mouse FAP [4] = target: T2, recombinant mouse FAP; assay: SPR, fusion protein captured by anti-mouse IgG (Fc) on a CM5 chip, mouse FAP as analyte 1.5625-200 nM, 1:1 binding model
Method: The surface of the CM5 chip was activated with a 1:1 mixture of […] (N-hydroxysuccinimide) and […] (1-Ethyl-3-(3-dimethylaminopropyl) carbodiimide), and 25 μg/ml of anti-mouse IgG (Fc) antibody was immobilized for 400 seconds at a rate of 10 μl/min. The remaining active ester groups were blocked with 1 M ethanolamine. T1.01m, T1.02m and T1.03m were diluted to 2 μg/ml and reacted on the CM5 chip immobilized with the anti-mouse IgG (Fc) antibody. The recombinant mouse FAP was diluted to 200 nM in 1×HBS-EP+buffer solution and diluted by serial dilution. The diluted recombinant mouse FAP was reacted at a rate of 30 μl/min. The association and dissociation times were 180 seconds and 400 seconds, respectively. After the dissociation, stabilization was performed for 60 seconds, and then a regeneration was performed for 30 seconds with a 10 mM glycine pH 1.5 solution at a rate of 30 μl/min.

| Binder | percent of cells in the positive gate (mFAP-PE) [1] | percent of cells in the positive gate (mFAP-PE) (B16F10) | Kd (recombinant mouse FAP [2]) | koff (recombinant mouse FAP [2]) | kon (recombinant mouse FAP [2]) | percent of cells bound [3] | Kd (recombinant mouse FAP [4]) | koff (recombinant mouse FAP [4]) | kon (recombinant mouse FAP [4]) |
| --- | --- | --- | --- | --- | --- | --- | --- | --- | --- |
| B1 | 92.1% | 1.37% | 1.53 nM | 0.00014 s⁻¹ | 91500 M⁻¹ s⁻¹ | ≥ 99% | – | – | – |
| B2 | 92.6% | 1.97% | – | – | – | ≥ 99% | – | – | – |
| B3 | 93.7% | 2.41% | 1.51 nM | 6.75e-05 s⁻¹ | 44700 M⁻¹ s⁻¹ | ≥ 99% | – | – | – |
| B4 | 91.6% | 0.89% | – | – | – | ≥ 99% | 1.25 nM | 7.66e-05 s⁻¹ | 61200 M⁻¹ s⁻¹ |

— patent US20250144178A1 (KANAPH THERAPEUTICS, published 2025)
